Test results published in patent publication US5820866.
One block for each substance: values may come before it.

What was measured:
[1] = biological target: IA^b -Ea protein bound by added cOVA peptide (murine; chicken) (UniProt P01012)
[2] = biological target: IA^b -Ea protein bound by added cOVA peptide (murine; chicken) (UniProt P01012); remark: listed apart in the source
[3] = biological target: IA^b protein (membrane-bound, without covalent peptide); experiment: inferred from IL-2 production by BO.97.10 with fibroblasts and added cOVA peptide
[4] = biological target: IA^b protein (membrane-bound, without covalent peptide); experiment: inferred from IL-2 production by BO.97.10 with M12.C3 cells and added cOVA peptide
[5] = biological target: IE^kd -MCC protein (soluble IE^kd αβ dimer with MCC peptide (91-103) joined by a linker to IEβ^k) (murine)
[6] = biological target: IA^d -OVA protein (soluble IA^d αβ dimer with cOVA peptide (327-339) joined by a linker to IAβ^d) (murine)
[7] = biological target: IA^b -Ea protein (membrane-bound IA^b with IEα^d peptide (56-73) joined by a linker to IAβ^b) (murine); experiment: inferred from IL-2 production by BO.97.10 with M12.C3 cells and added cOVA peptide

IL-2 production in the presence of cOVA peptide (M12.C3 cells) (fold less IL-2 production) [1]: 10 | IL-2 production in the presence of cOVA peptide (fibroblasts) (fold less IL-2 production) [2]: 10
Substance: BO.97.10 T hybridoma cells (TCR)

percent of the IA^b -Ea protein bound by IEα^d peptide [3]: 90% | percent of the IA^b -Ea protein with IEα^d bound to the binding site [4]: 90%
Substance: IEα^d Peptide (56-73)

digestion of the complex as assessed by SDS-PAGE [5]: > 80% | digestion of the complex as assessed by SDS-PAGE [6]: > 80%
Substance: thrombin (enzyme)

percent of the IA^b -Ea protein bound by cOVA peptide [7]: 10%
Substance: cOVA Peptide (327-339) (from UniProt P01012)
